# Source: publication PMC8112011, “Adaptive laboratory evolution accelerated glutarate production by Corynebacterium glutamicum” (Microbial Cell Factories, 2021)
# Changes are numbered by the printed parent chain. In names and notes the source's numbering stands.
# B1: GltBD (GOGAT, L-glutamic acid-2-oxoglutarate aminotransferase) (Corynebacterium glutamicum ATCC 13032) (protein)
# chain: CGVAFIADIHGRPSRSIVDRALEALRNIDHRGAAGAEKNTGDGAGILMQIPDGFYREVSGIELPEAGEYATGIAFLPRGRMAMMDAQKEIERIAKQEGADVLGWRMVPFDSRDLGSMAEEAMPSFAQIFLTVPGKSGEDLDRVMFFIRKRCERELGTTNGRDTVYFPSLSSRTIIYKGMLTTLQLEGFFEDLGDARLESAIAIVHSRFSTNTFPSWPLAHPYRFVAHNGEINTVRGNENWMRAREALIKNDKLGNLSSVLPICTPEGSDTARFDEALELLHLGGYSLPHAVAMMIPQAWEHNKTLSPELRDFYEYHSCLMEPWDGPAALAFTDGRFVGAVLDRNGLRPGRITITDSGLVVMASESGVLDLREESVVKRTRVQPGRMFLVDTAEGRIVEDEEIKQKLSEAQPYGEWIRDNFVHLDRLPQTRYNYMAHSRAVLRQRVFGITEEDVDLLLLPMARQGAEAIGSMGSDTPIAALSQRPRMLYDFFAQRFAQVTNPPLDSIREKPVTSMFTLLGAQSDVLNPGPDAARRIRLESPIIDNHELATLINANAHGEWDSFGAAVISGLYPVAHHGAGMKAAIARVRREVSEAIRNGKTLIVLSDRESDERMAPIPALLLTSAVHQYLVQQRTRTQCSLVVESGDAREVHHLAMLIGFGADAINPYMAFETIDELRMKGQLGDLSLDEASRNYIKAATTGVLKVMSKMGIATVSSYRGAQLADVTGLHQDLLDNYFGGIASPISGIGLDEVAADVEARHRSAFLPRPEEHAHRELDLGGEYKWRREGEYHLFNPETIFKLQHATRSGSYEIFKDYTRKVDDQSTRLGTIRGLFEFSTDRKPISVSEVEPVSEIVKRFSTGAMSYGSISAEAHEVLAIAMNRLGGMSNSGEGGEDARRFDVEPNGDWKRSAIKQVASGRFGVTSHYLNNCTDIQIKMAQGAKPGEGGQLPPNKVYPWVAEVRITTPGVGLISPPPHHDIYSIEDLAQLIHDLKNANPRARIHVKLVAEQGVGTVAAGVSKAHADVVLISGHDGGTGASPLTSLKHAGGPWELGLAETQQTLLLNGLRDRIRVQCDGQLKTGRDVVIAALLGAEEFGFATAPLVVEGCIMMRVCHLDTCPVGIATQNPDLRSKFTGKAEHVVNFFTFIAQEVREYLAQLGFRSIDEAVGQAQVLRKRSGIPADSRAAHLDLSPIFHRPETPHFPTQDVRCTKTQEHSLEKALDNAFIDKASDTITRAAAGVETSIVIDSSISNVNRSVGTMLGSAVSRVAGAQGLPDGTITLNLQGCAGNSFGAFIPRGITINLTGDANDFVGKGLSGGKIVIKPSAQAPKQLKNNPNIIAGNVLGYGATSGELFIRGQVGERFCVRNSGATAVVEGIGNHGCEYMTGGRVLVLGPVGENFGAGMSGGIAYLANSPDLNQKINGELVDVVPLSADDLTWADELIARHRELTGSETKLRAQDLVKIMPRDFQKVLNIIETAHAEGQDPAIKIMEAVS
# notes: full-length gltBD on plasmid pEKEx3, overexpressed in C. glutamicum GRLys1ΔgltB (chromosomal gltB deleted); untagged; crude extract; with Glutamate synthase [NADPH] small chain
# B2: GltBD (GOGAT, L-glutamic acid-2-oxoglutarate aminotransferase) (Corynebacterium glutamicum ATCC 13032; E686Q) (protein)
# chain: B1 chain with E671Q
# notes: as for B1
# Substrate: NC(=O)CC[C@H](N)C(=O)O
# Test: cells, lysate or membranes
# Type: biochemical, Corynebacterium glutamicum
# Conditions: 1.5 mM NADPH, 35 mM 2-oxoglutarate, 100 mM phosphate pH 7.0, 30 °C
protein,measurement,value
B1,Km,250 ± 30 µM
B2,Km,520 ± 40 µM
